Data on 13 molecules can be found in patent US20250277029A1, “CANNABINOID TYPE 1 RECEPTOR BINDING PROTEINS AND USES THEREOF” (AMGEN INC., priority 2022, published 2025).

Numbering of substitutions follows the chain as printed.

T1: XCR1-SMALP (Homo sapiens, UniProt P46094)
T1 sequence (P46094 1-333): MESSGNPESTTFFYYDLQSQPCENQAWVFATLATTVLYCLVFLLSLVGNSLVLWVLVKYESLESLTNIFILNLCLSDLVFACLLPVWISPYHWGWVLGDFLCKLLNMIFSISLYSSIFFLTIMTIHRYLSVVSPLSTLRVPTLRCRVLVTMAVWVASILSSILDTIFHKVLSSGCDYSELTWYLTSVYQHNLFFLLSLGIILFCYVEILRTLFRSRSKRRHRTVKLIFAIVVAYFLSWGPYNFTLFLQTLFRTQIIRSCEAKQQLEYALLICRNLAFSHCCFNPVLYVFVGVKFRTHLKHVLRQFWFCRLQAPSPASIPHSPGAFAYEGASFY

B1: LIBC527814-1: LC-swapped affinity-matured 10D10 variant; HV SEQ ID NO: 236, LV SEQ ID NO: 235 (antibody, V domains shown)
VH: QVQLQESGPGLVKPSQTLSLTCTVSGGSIRRGGDYWGWIRQHPGKGLEWIGHVYQTGSTKYNPSFKDRATISVNTYKNQFSLKLSSVTAADTAVYYCARNYDTLTGYSYYYYGMDVWGQGTTVTVSS
VL: DIQMTQSPSTLSASVGDRVTITCRASQSISNYLNWYQQKPGKAPKLLIYAASSLHSGVPSRFSGSGSGTDFTLTISSLQPEDFASYYCQQYQSYPLTFGQGTKVEIKR
B2: LIBC523661-1: cognate affinity-matured 10D10 variant; HV SEQ ID NO: 98, LV SEQ ID NO: 97 (antibody, V domains shown)
VH: B1 VH with G37S, V53I, Q55Y, T56E, D67G, N100D, T103P, L104V, Y107H
VL: DIVMTQSPLSLPVTPGEPASISCRSSQSLLTSSGYNYVDWYLQKPGQSPQLLIYQGSNRASGVPDRFSGSGSGTDFTLKISRVEAEDVGVYYCRQARAIPRTFGQGTKVEIKR
B3: LIBC527997-1: LC-swapped affinity-matured 10D10 variant; HV SEQ ID NO: 226, LV SEQ ID NO: 225 (antibody, V domains shown)
VH: B1 VH with G37A, V53I, K60N, S64R, D67G
VL: B1 VL with T10S
B4: LIBC527919-1: LC-swapped affinity-matured 10D10 variant; HV SEQ ID NO: 252, LV SEQ ID NO: 251 (antibody, V domains shown)
VH: B1 VH with G37A, K60A, S64N, T103A, T105S
VL: B1 VL with M4L, T10S, S30I, N31S, H55R, S85T, Q92S, S93N, Q100G, K103R
B5: LIBC673952-1: further cognate affinity-matured variant; HV SEQ ID NO: 368, LV SEQ ID NO: 367; 52777 in YTE format (antibody, V domains shown)
VH: B1 VH with G37S, Q55Y, S58Q, K60T, K66R, D67G, A69V, N100D, T103I, M114L
VL: B2 VL with T31H, S32R, V38L, I99L
modifications: YTE Fc format
notes: 52777 in YTE format
B6: LIBC680574-1: further VK1 LC-optimized variant; HV SEQ ID NO: 460, LV SEQ ID NO: 459; 52778 in YTE format (antibody, V domains shown)
VH: B1 VH with G37A, Q55Y
VL: DIQMTQSPSSLSASVGDRVTITCRASQSISSYLNWYQQKPGKAPKLLIYGARRLGSGVPSRFSGSGSGTDFTLTISSLQPEDFATYYCQQYSSLPVTFGGGTKVEIKR
modifications: YTE Fc format
notes: further VK1 LC-optimized variant; 52778 in YTE format
B7: LIBC680812-1: further VK1 LC-optimized affinity-matured variant (antibody, V domains shown)
VH: B1 VH
VL: B6 VL with G50S, G55S, S92R, L94Y, V96I
B8: LIBC680800-1: further VK1 LC-optimized affinity-matured variant (antibody, V domains shown)
VH: B1 VH with G37A, V53I, K60N, S64R, D67G
VL: B6 VL with G50S, R53A, G55S, S92R, S93K, L94F, V96L
B9: LIBC681593-1: further VK1 LC-optimized affinity-matured variant (antibody, V domains shown)
VH: B1 VH with G37A, V53I, K60N, S64R, D67G
VL: B6 VL with G50N, S92R, L94S
B10: LIBC680562-1: further VK1 LC-optimized affinity-matured variant (antibody, V domains shown)
VH: B1 VH with G37A, V53I, K60N, S64R, D67G
VL: B6 VL with G50S, G55S, S92A, S93K, L94S, V96I
B11: LIBC674229-1: further cognate affinity-matured variant (antibody, V domains shown)
VH: QVQLQESGPGLVKPSQTLSLTCTVSGGSIRRGGDYWSWIRQHPGKGLEWIGHIYQTGQTKYNPSFKGRVRISVNTYKNQFSLKLSSVTAADTAVYYCARGYDVSGYSYYYYGMDVWGQGTTVTVSS
VL: B2 VL with T31H, S32R, V38L, R94M, A96S, R97L, A98Q, I99T
B12: LIBC674090-1: further cognate affinity-matured variant (antibody, V domains shown)
VH: B11 VH with Q55Y, T56A, Q58S, K60A, S64N, K66R, V103T, M113L
VL: B2 VL with T31H, S32R, V38L, R94M, A96S, R97L, A98Q, I99T
B13: LIBC674200-1: further cognate affinity-matured variant (antibody, V domains shown)
VH: B11 VH with I53V, Q55Y, K60A, S64N, K66R, G67N
VL: B2 VL with T31H, S32R, V38L, Q55L, D65G, R94M, A96S, R97L, A98Q, I99T

For the first test, the system named is CB1-nanodisc. The test is described as follows: Octet affinity assay with CB1-nanodisc. Type of test: binding, human. The note with it: 1:1 Langmuir model. In general terms: Biolayer interferometry detects binding as a change in optical thickness at a sensor tip.
Protocol: Affinity assay using Octet. The Octet@HTX (Sartorius, Germany) instrument was used to determine affinities of anti-CB1 antibodies. Prior to experiment, Streptavidin (SA) biosensors (ForteBio, #18-5021) were pre-hydrated for 10 min in Octet assay buffer containing 10 mM Tris (Fisher, #BP152-1), 150 mM NaCl (Fisher, #5271-10), 1 mM CaCl2) (Fisher, #BP510-500), 0.1 mg/mL BSA (BioShop, #ALB001.1), and 0.1% Triton-X 100 (Calbiochem, #9410-OP), pH7.4. SA biosensors were loaded with biotinylated anti-human Fc antibody (Invitrogen, #A18827) followed by one baseline step of 60 s in Octet assay buffer. Anti-CB1 antibodies were prepared in Octet assay buffer and captured by the anti-human Fc antibody prior to being submerged in wells containing different concentrations of CB1-nanodisc (#CB1-008, in-house) for 5 min, followed by 10 min dissociation. […] SA biosensors were used once without regeneration. For data evaluation, ForteBio Data Analysis v11.0 software was used. The kinetic rate constants, association rate constant (ka, M−1s−1), dissociation rate constant (kd, s−1), and the equilibrium rate constant (KD, M) were determined by using a 1:1 Langmuir model.
In the case of B1, the “Octet (nanodisc) k off” value is 0.00198 s⁻¹ and the “Octet (nanodisc) k on” value worked out at 56600 M⁻¹ s⁻¹.

B2: the “Octet (nanodisc) k off” value is 0.00275 s⁻¹ and the “Octet (nanodisc) k on” value stood at 35700 M⁻¹ s⁻¹.

Regarding B3, the “Octet (nanodisc) k off” value was determined as 0.00136 s⁻¹ and the “Octet (nanodisc) k on” value turned out to be 51800 M⁻¹ s⁻¹.

Consider B4, for which the “Octet (nanodisc) k off” value was found to be 0.00339 s⁻¹ and the “Octet (nanodisc) k on” value came out at 56200 M⁻¹ s⁻¹.

A further test has as its system diet-induced obese (DIO) huCB1 knock in (KI) mice. Kind of test: Diet-induced obese huCB1 knock in mice, 30 mg/kg QW for 35 days: body weight, food intake, fat mass, liver weight. The note with it: YTE format. Type of test: in vivo, mouse. The method, then:
The further affinity matured antibodies LIBC673952 (52777) and LIBC680574 (52778) in YTE format (Dall'Acqua et al., The Journal of Immunology, 169: 5171-5180 (2002)) was scaled up for testing in diet-induced obese (DIO) transgenic mice with huCB1 knocked in. […] The antibodies (52777, 52778, and 37940) and a control antibody (huIgG control) were administered to the mice at 30 mg/kg QW for 35 days, and the body weight and food intake of the animals were measured every 3-4 days and the results are shown in FIGS. 10A and 10B.
With B5, the “average daily food intake” value is on record as “did not change significantly” and the “body weight of the animals” value is on record as “reduced body weight”.

For the molecule B6, the “average daily food intake” value is on record as “did not change significantly” and the “body weight of the animals” value is “reduced body weight”.

For another test, the target named is T1, XCR1-SMALP. Kind of test: Yeast-display non-specific binding to irrelevant XCR1-SMALP. To be noted: 25 nM; fold change compared to LIBC528116 (Fab), after background subtraction. An excerpt: All eighteen cognate variants met the stringent binding improvement threshold against huCB1I-GFP-SMALP and had minimal binding to irrelevant XCR1-SMALP and empty-ND (Table 32). […] For LIBC674043-1 and LIBC674200-1, VH R149S and VL G76D germline reversion mutations were also included in the panel of IgG1 SEFL2 mAbs produced for functional testing.
Regarding B7, the “25 nM XCR1-SMALP-GFP, relative binding fold change” value was 0.59.

On to B6, for which the “25 nM XCR1-SMALP-GFP, relative binding fold change” value amounted to 0.56.

Take B8: the “25 nM XCR1-SMALP-GFP, relative binding fold change” value is 0.47.

In the case of B9, the “25 nM XCR1-SMALP-GFP, relative binding fold change” value stood at 0.72.

On to B10, for which the “25 nM XCR1-SMALP-GFP, relative binding fold change” value amounted to 0.64.

Staying with this test, now noted: 50 nM; fold change compared to LIBC523797-1(Fab), after background subtraction.
For B5, the “50 nM XCR1 SMALP, relative binding fold change” value was 0.59.

Regarding B11, the “50 nM XCR1 SMALP, relative binding fold change” value amounted to 0.80.

In the case of B12, the “50 nM XCR1 SMALP, relative binding fold change” value amounted to 0.74.

For B13, the “50 nM XCR1 SMALP, relative binding fold change” value was 0.79.
